What all share (test): competition
Test [1] concerns the target T1, human NK1 receptor (human, UniProt P25103).
T1 chain: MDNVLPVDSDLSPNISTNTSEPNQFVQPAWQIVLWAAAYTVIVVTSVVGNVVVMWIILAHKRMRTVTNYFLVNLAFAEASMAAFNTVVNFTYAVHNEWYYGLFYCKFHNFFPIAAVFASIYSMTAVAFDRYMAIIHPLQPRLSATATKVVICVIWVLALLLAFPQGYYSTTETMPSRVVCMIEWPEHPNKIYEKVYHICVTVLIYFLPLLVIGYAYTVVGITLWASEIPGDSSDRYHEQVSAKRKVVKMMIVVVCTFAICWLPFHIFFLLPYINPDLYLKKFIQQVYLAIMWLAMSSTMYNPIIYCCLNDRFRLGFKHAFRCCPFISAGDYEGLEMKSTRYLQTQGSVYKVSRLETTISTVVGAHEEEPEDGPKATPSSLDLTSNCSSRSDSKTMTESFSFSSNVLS

Test [2] concerns the target T2, rat NK1 receptor (rat, UniProt P14600).
T2 chain: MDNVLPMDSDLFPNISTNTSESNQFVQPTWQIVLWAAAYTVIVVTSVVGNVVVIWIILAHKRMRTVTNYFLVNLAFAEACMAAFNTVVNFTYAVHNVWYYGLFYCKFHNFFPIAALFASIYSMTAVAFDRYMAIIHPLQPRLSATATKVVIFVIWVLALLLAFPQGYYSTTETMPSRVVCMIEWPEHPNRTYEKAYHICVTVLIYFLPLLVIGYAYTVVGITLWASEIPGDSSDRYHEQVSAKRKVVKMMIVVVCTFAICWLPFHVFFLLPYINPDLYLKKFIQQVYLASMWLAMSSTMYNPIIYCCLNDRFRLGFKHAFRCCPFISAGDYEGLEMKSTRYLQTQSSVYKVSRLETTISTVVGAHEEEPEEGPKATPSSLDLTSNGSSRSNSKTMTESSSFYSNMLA

Test [3] has as its target T1, human NK1 receptor.
Test [4] addresses T2, rat NK1 receptor.
Test [5] addresses T3, delta opioid receptor (DOR) (UniProt P41143).
T3 chain: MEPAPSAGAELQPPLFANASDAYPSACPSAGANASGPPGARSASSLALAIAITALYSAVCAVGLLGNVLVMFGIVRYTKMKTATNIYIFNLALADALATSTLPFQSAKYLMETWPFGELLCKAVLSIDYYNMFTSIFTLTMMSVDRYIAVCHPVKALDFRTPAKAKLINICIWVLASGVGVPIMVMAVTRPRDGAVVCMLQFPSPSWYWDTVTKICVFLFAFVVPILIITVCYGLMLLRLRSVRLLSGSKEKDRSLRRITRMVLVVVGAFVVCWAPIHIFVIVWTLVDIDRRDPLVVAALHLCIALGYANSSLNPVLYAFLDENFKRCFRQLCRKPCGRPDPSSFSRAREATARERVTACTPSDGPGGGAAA

The target in test [6] is mu opioid receptor (MOR) (UniProt P35372).
Chain of mu opioid receptor (MOR) (P35372 whole entry): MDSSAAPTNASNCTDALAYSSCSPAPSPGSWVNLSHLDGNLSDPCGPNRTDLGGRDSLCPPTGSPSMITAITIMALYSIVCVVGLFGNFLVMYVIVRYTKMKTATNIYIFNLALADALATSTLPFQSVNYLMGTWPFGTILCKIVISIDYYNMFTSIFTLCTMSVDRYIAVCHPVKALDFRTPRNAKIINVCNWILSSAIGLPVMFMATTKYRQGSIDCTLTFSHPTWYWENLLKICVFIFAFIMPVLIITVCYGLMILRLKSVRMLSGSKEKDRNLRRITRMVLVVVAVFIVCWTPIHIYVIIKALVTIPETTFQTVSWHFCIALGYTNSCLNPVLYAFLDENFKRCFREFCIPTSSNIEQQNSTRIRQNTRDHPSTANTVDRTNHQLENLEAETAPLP
The target is the same in test [7]. The source holds these as a separate data set.
Test [8] deals with T2, rat NK1 receptor.
The target in test [9] is T1, human NK1 receptor.
Test [10] concerns the target mu opioid receptor (MOR) (UniProt P35372). The source holds these as a separate data set.
The target in test [11] is T3, delta opioid receptor (DOR).

Like-named read-outs stand apart in the source and are kept apart here. Non-standard residues stand in square brackets, D forms with d. Primed or numbered codes have the meaning given here. No end group written: not given here. *: point of attachment. NH(3,5-(CF3)2-benzyl) = FC(F)(F)c1cc(CN*)cc(C(F)(F)F)c1; NMePhe(4-F) = CN[C@@H](Cc1ccc(F)cc1)C(=O)O; Phe(4-F) = N[C@@H](Cc1ccc(F)cc1)C(=O)O; Dmt = Cc1cc(O)cc(C)c1C[C@H](N)C(=O)O; NMeF = CN[C@@H](Cc1ccccc1)C(=O)O; 4‑Ampa = not defined here; 4‑Apac = not defined here; hSer = N[C@@H](CCO)C(=O)O; 4Abz = Nc1ccc(C(=O)O)cc1; 4Amb′ = not defined here; Dap = NC[C@H](N)C(=O)O; NHBn = c1ccc(CN*)cc1; Ahx = NCCCCCC(=O)O; GABA = NCCCC(=O)O; βAla = NCCC(=O)O

By Ki is commonly meant the equilibrium dissociation constant of an inhibitor or competing ligand from its target. Read a low Ki as higher affinity. Turning to XAGFPLW (Dmt1, D-Ala2, NMeGly3; C-terminal NH-Bn(3',5'-(CF3)2)) [AKG180], the Ki stood at 2.86 nM in the test with human NK1 receptor [1] and 17.1 nM with rat NK1 receptor [2].
For XAGFMPLW (not fully specified; Dmt1, D-Ala2, NMePhe4 as described; C-terminal benzylamide) [AKG107], the inhibition constant Ki with human NK1 receptor [3] amounted to 1.97 nM; with rat NK1 receptor [4], 13.6 nM.
For Y[dA]G[NMeF][4Abz]PLW-{NH(3,5-(CF3)2-benzyl)} [AKG176], the Ki stood at 82 nM in test [5], 1 nM with mu opioid receptor (MOR) [6], 4.12 nM with human NK1 receptor [3] and 77.8 nM with rat NK1 receptor [4].
On to Y[dA]G[NMeF][Ahx]PLW-{NH(3,5-(CF3)2-benzyl)} [AKG124], for which the Ki worked out at 31 nM in test [5], 7 nM with mu opioid receptor (MOR) [6], 1.22 nM with human NK1 receptor [3] and 44.3 nM with rat NK1 receptor [4].
In the case of Y[dA]G[NMeF][GABA]PLW-{NH(3,5-(CF3)2-benzyl)} [AKG123], the Ki was 3 nM in test [5], 9 nM with mu opioid receptor (MOR) [6] and 1.56 nM with human NK1 receptor [3].
With XAGFPLW (Dmt1, D-NMeAla2, NMeGly3, NMePhe4; C-terminal NH-Bn(3',5'-(CF3)2)) [AKG185], the inhibition constant (Ki) was determined as 3.47 nM in the test with human NK1 receptor [1] and 74.8 nM with rat NK1 receptor [2].
On the same counts, the results for XAGFPLW (Dmt1, D-NMeAla2; C-terminal NH-Bn(3',5'-(CF3)2)) [AKG181] are 4.81 nM and 26.4 nM.
Turning to Y[dA]GFPLW-{NH(3,5-(CF3)2-benzyl)} [TY012], the Ki in the test with human NK1 receptor [1] turned out to be 0.6 nM; with rat NK1 receptor [2], 33 nM; with mu opioid receptor (MOR) [7] it was 9.5 nM.
On to Y[dA]GF[dS]PLW-NHBn [AKG101], for which the Ki came to 108 nM with rat NK1 receptor [8], 2.77 nM with human NK1 receptor [9], 196 nM in the test with mu opioid receptor (MOR) [10] and 34 nM in test [11].
Consider Y[dA]G[Phe(4-F)]GPLW-{NH(3,5-(CF3)2-benzyl)} [AKG130], for which the Ki in test [5] amounted to 5 nM; in the test with mu opioid receptor (MOR) [6], 9 nM; with human NK1 receptor [3], 1.54 nM; with rat NK1 receptor [4] it was 72.5 nM.
With Y[dA]GFSPLW (not fully specified (C-terminus)) [AKG038], the Ki with rat NK1 receptor [8] was determined as 206 nM; in the test with human NK1 receptor [9], 1.94 nM; with mu opioid receptor (MOR) [10], 127 nM; in test [11], 7 nM.
As for Y[dA]G[NMeF]KPLW (not fully specified (C-terminus)) [AKG174], the figures for the Ki with rat NK1 receptor [8], with human NK1 receptor [9] and with mu opioid receptor (MOR) [10] were 7.31 nM, 3.18 nM and 8 nM, respectively.
In the test with mu opioid receptor (MOR) [7], XAGFPLW (Dmt1, D-Ala2, Phe(4-I)4; C-terminal NH-Bn(3',5'-(CF3)2)) [AKG193] registered a Ki of 6 nM. This lies in the single-digit nanomolar range.
Consider Y[dA]G[NMeF]SPLW-NHBn [AKG126], for which the Ki in the test with rat NK1 receptor [8] was determined as 31.5 nM; with human NK1 receptor [9] it was 0.86 nM; with mu opioid receptor (MOR) [10], 2 nM; in test [11], 63 nM.
On the same counts, the results for Y[dA]GF[hSer]PLW-NHBn [AKG039] are 148 nM, 1.32 nM, 116 nM and 6 nM.
As to Y[dA]G[NMeF][4‑Apac]PLW-{NH(3,5-(CF3)2-benzyl)} (reading uncertain) [AKG177], the Ki stood at 70 nM in [5], 1 nM with mu opioid receptor (MOR) [6], 5.28 nM with human NK1 receptor [3] and 74.3 nM in the test with rat NK1 receptor [4].
On the same counts, the results for Y[dA]G[NMeF][4Amb′]PLW-{NH(3,5-(CF3)2-benzyl)} (reading uncertain) [AKG125] are 117 nM, 5 nM, 2.27 nM and 29.9 nM.
As for XAGFPLW (Dmt1, D-Ala2, NMeGly3, NMePhe4; C-terminal NH-Bn(3',5'-(CF3)2)) [AKG182], the Ki was 5 nM with human NK1 receptor [1] and 110 nM in the test with rat NK1 receptor [2].
Regarding XAGFPLW (Dmt1, D-Ala2, Phe(4-Br)4; C-terminal NH-Bn(3',5'-(CF3)2)) [AKG192], the Ki in the test with human NK1 receptor [1] came to 2.54 nM; with mu opioid receptor (MOR) [7], 5 nM.
Turning to XAGFPLW (Dmt1, D-NMeAla2, NMePhe4; C-terminal NH-Bn(3',5'-(CF3)2)) [AKG184], the values for the Ki with human NK1 receptor [1] and in the test with rat NK1 receptor [2] were 2.84 nM and 115 nM, respectively.
As for Y[dA]G[NMePhe(4-F)]GPLW-{NH(3,5-(CF3)2-benzyl)} [AKG131], the Ki came to 17 nM in test [5], 185 nM in the test with mu opioid receptor (MOR) [6], 2.14 nM in the test with human NK1 receptor [3] and 89.1 nM in the test with rat NK1 receptor [4].
On to Y[dA]G[NMeF][4‑Ampa]PLW-{NH(3,5-(CF3)2-benzyl)} (reading uncertain) [AKG178], for which the inhibitory constant (Ki) amounted to 100 nM in [5], 3.5 nM with human NK1 receptor [3] and 72.3 nM with rat NK1 receptor [4].
In the case of XAGFPLW (Dmt1, D-Ala2, NMePhe(4-F)4; C-terminal NH-Bn(3',5'-(CF3)2)) [AKG128], the figures for the Ki in the test with human NK1 receptor [1], with rat NK1 receptor [2] and with mu opioid receptor (MOR) [7] were 2.62 nM, 33.8 nM and 1 nM, respectively.
As to Y[dA]G[NMeF]GPLW-{NH(3,5-(CF3)2-benzyl)} [AKG113], the Ki in [5] worked out at 46 nM; with mu opioid receptor (MOR) [6] it was 3 nM; with human NK1 receptor [3], 15 nM; with rat NK1 receptor [4], 60.5 nM.
On the same counts, the results for Y[dA]G[NMeF][βAla]PLW-{NH(3,5-(CF3)2-benzyl)} [AKG119] are 46 nM, 8 nM, 0.93 nM and 29.4 nM.
As for Y[dA]G[NMeF]MPLW-NHBn [AKG106], the values for the Ki with human NK1 receptor [3] and in the test with rat NK1 receptor [4] were 1.47 nM and 9.9 nM, respectively.
In the case of Y[dA]G[NMeF][Dap]PLW-NHBn [AKG171], the Ki came out at 8.59 nM with rat NK1 receptor [8], 2.98 nM in the test with human NK1 receptor [9], 3 nM with mu opioid receptor (MOR) [10] and 33 nM in test [11].
As to YAGFXPLW (D-Ala2, NMePhe4, Nle5; C-terminal NH-Bn(3',5'-(CF3)2)) [AKG112], the Ki in test [5] stood at 22 nM; with mu opioid receptor (MOR) [6], 13 nM; with human NK1 receptor [3], 14 nM.
As to XAGFPLW (Dmt1, D-NMeAla2, NMeGly3; C-terminal NH-Bn(3',5'-(CF3)2)) [AKG183], the Ki in the test with human NK1 receptor [1] turned out to be 2.49 nM; with rat NK1 receptor [2] it was 17.6 nM.
As for [Dmt][dA]G[NMeF]SPLW-NHBn [AKG132], the Ki with rat NK1 receptor [8] stood at 31.1 nM; with human NK1 receptor [9] it was 5.61 nM; with mu opioid receptor (MOR) [10], 0.4 nM; in [11] it was 2 nM.
